The source of these data is article PMC8994484.

The experiment addresses ofCP (Olindias formosa). Put plainly: SEC. (In gel filtration, larger molecules generally elute earlier.)

One may read the stoichiometry N as the number of molecules, sites or subunits per partner or assembly.

Regarding ofCP (natural protein), the stoichiometry N worked out at 2.
